# Test results published in patent US20230136228A1 (LAMKAP BIO ALPHA, published 2023).
# Where a chain is given by its changes, count along the chain named. Numbers in names are those of the source.
# T1: shed soluble CEACAM5 (sCEA) (human, UniProt P06731 35-685, limits assumed)
# T1 sequence (looked up): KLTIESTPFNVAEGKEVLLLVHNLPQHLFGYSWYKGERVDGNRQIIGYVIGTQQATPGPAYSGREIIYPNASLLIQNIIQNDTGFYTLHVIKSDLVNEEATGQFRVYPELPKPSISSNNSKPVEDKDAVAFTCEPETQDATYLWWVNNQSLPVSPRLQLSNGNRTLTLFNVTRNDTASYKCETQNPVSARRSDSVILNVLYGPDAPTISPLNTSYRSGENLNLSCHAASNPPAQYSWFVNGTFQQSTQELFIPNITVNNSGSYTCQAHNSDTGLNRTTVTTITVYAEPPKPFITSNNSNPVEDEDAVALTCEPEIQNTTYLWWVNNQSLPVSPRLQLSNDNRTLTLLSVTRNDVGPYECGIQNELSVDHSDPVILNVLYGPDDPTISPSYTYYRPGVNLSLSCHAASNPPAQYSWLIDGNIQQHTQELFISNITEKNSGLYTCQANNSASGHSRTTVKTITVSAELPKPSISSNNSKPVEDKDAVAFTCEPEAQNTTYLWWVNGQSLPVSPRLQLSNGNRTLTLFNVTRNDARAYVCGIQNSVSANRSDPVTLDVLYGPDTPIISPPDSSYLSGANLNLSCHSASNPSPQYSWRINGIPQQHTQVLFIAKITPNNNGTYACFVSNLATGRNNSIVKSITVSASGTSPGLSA
# T2: human CEACAM5 (carcinoembryonic antigen, CEA), cell surface (human, UniProt P06731 35-685)
# T2 construct: whole, on cells; also called CD66e
# T2 sequence (looked up): T1 sequence (looked up)
# T3: biotinylated recombinant human CEACAM5 protein (human, UniProt P06731 35-685, biotinylated in vitro with biotin ligase (Avitag))
# T3 construct: extracellular domain; also called recombinant CEA; CEA ECD; not shown: C-terminal Avitag and either a hexa-histidine tag, a human Fc region or a mouse Fc region; which one was used in the ELI
# T3 sequence (looked up): T1 sequence (looked up)
# B1: AB1 L3-1/D (bispecific antibody, human IgG1, kappa, lambda, L234A L235A)
# heavy: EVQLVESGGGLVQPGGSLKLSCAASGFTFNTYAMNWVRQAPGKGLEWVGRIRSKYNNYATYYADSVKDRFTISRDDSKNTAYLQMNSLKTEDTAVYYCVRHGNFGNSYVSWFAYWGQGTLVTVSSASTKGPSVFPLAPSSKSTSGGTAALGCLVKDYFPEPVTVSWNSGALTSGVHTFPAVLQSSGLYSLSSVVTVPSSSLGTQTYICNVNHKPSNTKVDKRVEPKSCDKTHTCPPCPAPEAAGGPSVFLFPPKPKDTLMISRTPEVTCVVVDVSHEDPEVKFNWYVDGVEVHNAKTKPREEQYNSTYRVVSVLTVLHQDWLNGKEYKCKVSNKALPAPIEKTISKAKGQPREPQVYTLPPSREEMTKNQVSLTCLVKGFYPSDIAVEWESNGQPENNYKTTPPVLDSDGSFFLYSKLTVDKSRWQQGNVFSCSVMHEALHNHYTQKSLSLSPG
# light 1: EIVLTQSPATLSLSPGERATLSCRASQSVNSNLNWYQQKPGQAPRLLIYHGSNRATGIPARFSGSGSGTDFTLTISSLEPEDFAVYYCQQFDLRHEHNTFGQGTKVEIKRTVAAPSVFIFPPSDEQLKSGTASVVCLLNNFYPREAKVQWKVDNALQSGNSQESVTEQDSKDSTYSLSSTLTLSKADYEKHKVYACEVTHQGLSSPVTKSFNRGEC
# light 2: QTVVTQEPSLTVSPGGTVTLTCRSSTGAVTTSNYANWFQQKPGQAPRGLIGGTNKRAPGTPARFSGSLLGGKAALTLSGAQPEDEAEYYCALWYKQRWVFGGGTKLTVLGQPKAAPSVTLFPPSSEELQANKATLVCLISDFYPGAVTVAWKADSSPVKAGVETTTPSKQSNNKYAASSYLSLTPEQWKSHRSYSCQVTHEGSTVEKTVAPTECS
# notes: KL CEAxCD3 bispecific antibody, hIgG1 L234A+L235A
# B2: AB54L3-1/N (bispecific antibody, human IgG1, kappa, lambda, L234A L235A)
# heavy: EVQLVESGGGLVQPGGSLKLSCAASGFTFNTYAMNWVRQAPGKGLEWVGRIRSKYNNYATYYADSVKDRFTISRDDSKNTAYLQMNSLKTEDTAVYYCVRHGNFGNSYVSWFAYWGQGTLVTVSSASTKGPSVFPLAPSSKSTSGGTAALGCLVKDYFPEPVTVSWNSGALTSGVHTFPAVLQSSGLYSLSSVVTVPSSSLGTQTYICNVNHKPSNTKVDKRVEPKSCDKTHTCPPCPAPEAAGGPSVFLFPPKPKDTLMISRTPEVTCVVVDVSHEDPEVKFNWYVDGVEVHNAKTKPREEQYNSTYRVVSVLTVLHQDWLNGKEYKCKVSNKALAAPIEKTISKAKGQPREPQVYTLPPSREEMTKNQVSLTCLVKGFYPSDIAVEWESNGQPENNYKTTPPVLDSDGSFFLYSKLTVDKSRWQQGNVFSCSVMHEALHNHYTQKSLSLSPG
# light 1: B1 light 1 with S28E, N30H, S31K, G51S, D92N, L93Y, R94H
# light 2: B1 light 2
# notes: Kappa-lambda body, lead optimization wave 2
# B3: AB60L3-1/N (bispecific antibody, human IgG1, kappa, lambda, L234A L235A)
# heavy: B2 heavy
# light 1: B1 light 1 with S28T, S31A, H50Y, G51A, L93Y, R94H, H95N
# light 2: B1 light 2
# notes: as for B2
# B4: AB14L3-1/N (bispecific antibody, human IgG1, kappa, lambda, L234A L235A)
# heavy: B2 heavy
# light 1: B1 light 1 with L93Y, R94F, H95R, H97S
# light 2: B1 light 2
# notes: Kappa-lambda body, lead optimization wave 1
# B5: AB13L3-1/N (bispecific antibody, human IgG1, kappa, lambda, L234A L235A)
# heavy: B2 heavy
# light 1: B1 light 1 with L93Y, R94F, H95M, E96N, H97K
# light 2: B1 light 2
# notes: as for B4
# B6: AB66L3-1/N (bispecific antibody, human IgG1, kappa, lambda, L234A L235A)
# heavy: B2 heavy
# light 1: B1 light 1 with R24H, A25S, S28V, S31K, L93Y, R94F, H95R
# light 2: B1 light 2
# notes: as for B2
# B7: AB20L3-1/N (bispecific antibody, human IgG1, kappa, lambda, L234A L235A)
# heavy: B2 heavy
# light 1: B1 light 1 with L93Y, R94F, H95R, H97L
# light 2: B1 light 2
# notes: as for B4
# B8: AB15L3-1/N (bispecific antibody, human IgG1, kappa, lambda, L234A L235A)
# heavy: B2 heavy
# light 1: B1 light 1 with S28T, S31N, A43S, H50Y, G51A, D92N, L93Y, R94H
# light 2: B1 light 2
# notes: as for B4
# B9: anti-CEA antibody C11 (antibody, human IgG1, kappa, V domains shown)
# VH: EVQLVESGGGLVQPGGSLKLSCAASGFTFNTYAMNWVRQAPGKGLEWVGRIRSKYNNYATYYADSVKDRFTISRDDSKNTAYLQMNSLKTEDTAVYYCVRHGNFGNSYVSWFAYWGQGTLVTVSS
# VL: DIQMTQSPSTLSASVGDRVTITCRASQLISNGLYWYQQKPGKAPKLLIYDASILESGVPSRFSGSGSGTEFTLTISSLQPDDFATYYCQQRLSWPLTFGQGTKVEIKR
# notes: Bivalent monoclonal antibody; also called C11 mAb
# Experiments:
# human CD3ε [1] = target: T4, human CD3ε (human, UniProt P07766 23-207); assay: flow cytometry, Jurkat cells
# T4 construct: whole, on cells; Present on cells as part of the CD3/TCR complex; also called CD3 epsilon
# T4 sequence (P07766 23-207): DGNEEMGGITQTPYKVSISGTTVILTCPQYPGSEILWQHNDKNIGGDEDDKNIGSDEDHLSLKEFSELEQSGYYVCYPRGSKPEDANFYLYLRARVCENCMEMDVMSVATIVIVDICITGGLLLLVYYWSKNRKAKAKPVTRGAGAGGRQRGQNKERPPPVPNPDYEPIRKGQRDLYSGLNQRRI
# [2] = target: T1, shed soluble CEACAM5 (sCEA); assay: cell-based or functional assay
# [3] = target: T2, human CEACAM5 (carcinoembryonic …); assay: flow cytometry, MKN-45 cells
# From the text: Examples of cells that can be used include CEACAM5-positive cell lines such as the gastric adenocarcinoma cell line MKN45 (expressing 155′000 CEACAM5 molecules per cell), or the pancreatic adenocarcinoma cell line HPAF-II (expressing 108′000 CEACAM5 molecules per cell) or the colorectal adenocarcinoma cell line LS174T (expressing 26′000 CEACAM5 molecules per cell) and CEACAM5-negative cell lines, such as the lung carcinoma cell line A549 and the MKN45 CEACAM5-knock out cell line generated by CRISPR-CAS9 methodology. Cell staining and binding assessment can be performed as described above. Binding of the bsAb of the invention at 200 nM, 1000 nM and 5000 nM is 40% and higher compared to binding of TCB2014 (see Table 4 and also FIGS. 11 and 14).
# human CD3ε [4] = target: T4, human CD3ε; assay: flow cytometry, primary CD4+ and CD8+ T-cells
# [5] = target: T2, human CEACAM5 (carcinoembryonic …); assay: flow cytometry, CEA positive cells
# [6] = target: T2, human CEACAM5 (carcinoembryonic …); assay: cell-based or functional assay
# [7] = target: T2, human CEACAM5 (carcinoembryonic …); assay: flow cytometry, MKN-45 and/or HPAF-II cells
# human CD3ε [8] = target: T4, human CD3ε; assay: flow cytometry, HUT-78 cells
# [9] = target: T3, biotinylated recombinant human CEACAM5 …; assay: competition ELISA with reference antibodies
Binder,"EC50 fold change compared to no shed CEA condition, sCEA 0 µg/mL (reference) [2]","EC50 fold change compared to no shed CEA condition, sCEA 0.2 µg/mL [2]","EC50 fold change compared to no shed CEA condition, sCEA 1 µg/mL [2]","EC50 fold change compared to no shed CEA condition, sCEA 5 µg/mL [2]",EC50 [3],Top MFI value [3],"binding higher than TCB2014 (at 200 nM, 1000 nM and 5000 nM) [3]",binding result (human CD3ε [4]),binding higher than TCB2014 (at 200 nM) [5],"Killing EC50, HPAFII cells (TDCC, LDH release) [6]","Killing EC50, LS174T cells (TDCC, LDH release) [6]","Killing EC50, MKN45 cells (TDCC, LDH release) [6]",binding higher than TCB2014 (at 100 nM) [7],binding result (human CD3ε [8]),further results
B1,–,–,–,–,–,–,–,–,–,–,–,–,–,–,binding result (human CD3ε [1]): binds
B2,1 fold,0.9 fold,4.6 fold,5.7 fold,66.4 nM,760000 MFI,≥ 40%,binds,≥ 40%,0.1 nM,0.13 nM,0.11 nM,–,–,–
B3,1 fold,0.9 fold,0.8 fold,1.3 fold,64.1 nM,989000 MFI,≥ 40%,binds,≥ 40%,0.28 nM,0.21 nM,0.13 nM,–,–,–
B4,–,–,–,–,–,–,–,–,–,–,–,–,≥ 40%,binds,–
B5,–,–,–,–,–,–,–,–,–,–,–,–,≥ 40%,binds,–
B6,1 fold,1.2 fold,2.1 fold,3.1 fold,24.3 nM,759000 MFI,≥ 40%,binds,≥ 40%,0.2 nM,0.22 nM,0.05 nM,–,–,–
B7,–,–,–,–,–,–,–,–,–,–,–,–,≥ 40%,binds,–
B8,–,–,–,–,–,–,–,–,–,–,–,–,≥ 40%,binds,–
B9,–,–,–,–,–,–,–,–,–,–,–,–,–,–,binding result [9]: binds
